# Experimental data as given in article PMC3590144, “Determination of the Structure of the Catabolic N-Succinylornithine Transaminase (AstC) from Escherichia coli” (PLoS ONE, 2013).
# What was measured:
# [1] = molecular target: the molecule itself; assay: crystal structure; apo-AstC without PLP; space group R32:h, 2 molecules in the asymmetric unit, 2.75 Å; grown in 1.4 M sodium malonate pH 7 at 20 °C; dimers formed by crystallographic symmetry
# [2] = molecular target: the molecule itself; assay: dynamic light scattering; in solution; hydrodynamic radius mean value 4.5 nm, about 100 kDa; data not shown
protein,measurement,setting,value
"apo-AstC, N-succinylornithine transaminase from Escherichia coli, without PLP (enzyme, E. coli (BL21 DE3), UniProt P77581 1-406, looked up, AstC (acetyl/succinylornithine aminotransferase) of E. coli; native, untagged protein, no plasmid or clone used; electron density from Gln3 to Ser402, the last 4 residues (Arg-Gly-Ser-Ser) not modelled, which implies 406 residues; Endogenous protein of strain BL21 (DE3); also called apo-protein; apo-enzyme; source: endogenous, E. coli BL21 (DE3) grown in 2xYT, purified (Ni-NTA, size exclusion …)) MSQPITRENFDEWMIPVYAPAPFIPVRGEGSRLWDQQGKEYIDFAGGIAVNALGHAHPELREALNEQASKFWHTGNGYTNEPVLRLAKKLIDATFADRVFFCNSGAEANEAALKLARKFAHDRYGSHKSGIVAFKNAFHGRTLFTVSAGGQPAYSQDFAPLPADIRHAAYNDINSASALIDDSTCAVIVEPIQGEGGVVPASNAFLQGLRELCNRHNALLIFDEVQTGVGRTGELYAYMHYGVTPDLLTTAKALGGGFPVGALLATEECARVMTVGTHGTTYGGNPLASAVAGKVLELINTPEMLNGVKQRHDWFVERLNTINHRYGLFSEVRGLGLLIGCVLNADYAGQAKQISQEAAKAGVMVLIAGGNVVRFAPALNVSEEEVTTGLDRFAAACEHFVSRGSS",binding result,[1],binds
"holo-AstC, N-succinylornithine transaminase from Escherichia coli reconstituted with PLP (enzyme, E. coli (BL21 DE3), UniProt P77581 1-406, looked up, PLP bound to Lys252 in a Schiff base (aldimine), AstC (acetyl/succinylornithine aminotransferase) of E. coli; native, untagged protein, no plasmid or clone used; the last 4 residues (Arg-Gly-Ser-Ser) after Ser402 not modelled, which implies 406 residues; Same polypeptide as m1, with the cofactor PLP added; Endogenous protein of strain BL21 (DE3); also called holo-enzyme; PLP/enzyme complex; source: endogenous, E. coli BL21 (DE3), purified …) MSQPITRENFDEWMIPVYAPAPFIPVRGEGSRLWDQQGKEYIDFAGGIAVNALGHAHPELREALNEQASKFWHTGNGYTNEPVLRLAKKLIDATFADRVFFCNSGAEANEAALKLARKFAHDRYGSHKSGIVAFKNAFHGRTLFTVSAGGQPAYSQDFAPLPADIRHAAYNDINSASALIDDSTCAVIVEPIQGEGGVVPASNAFLQGLRELCNRHNALLIFDEVQTGVGRTGELYAYMHYGVTPDLLTTAKALGGGFPVGALLATEECARVMTVGTHGTTYGGNPLASAVAGKVLELINTPEMLNGVKQRHDWFVERLNTINHRYGLFSEVRGLGLLIGCVLNADYAGQAKQISQEAAKAGVMVLIAGGNVVRFAPALNVSEEEVTTGLDRFAAACEHFVSRGSS",stoichiometry N,[2],2
